Literature values, collected in patent US20180071407A9, “SYSTEMS AND METHODS FOR INTRA-TARGET MICRODOSING (ITM)” (priority 2013, published 2018).

Details: known value used to choose sampling time points; cited from earlier work

Which half-life of insulin does the source give for insulin here?
Its half-life of insulin is 4 to 6 min.
